B2: MBP-LSF fusion protein (purified full-length LSF) (natural protein, human, UniProt Q12800 1-502, looked up)
chain: MAWALKLPLADEVIESGLVQDFDASLSGIGQELGAGAYSMSDVLALPIFKQEESSLPPDNENKILPFQYVLCAATSPAVKLHDETLTYLNQGQSYEIRMLDNRKLGELPEINGKLVKSIFRVVFHDRRLQYTEHQQLEGWRWNRPGDRILDIDIPMSVGIIDPRANPTQLNTVEFLWDPAKRTSVFIQVHCISTEFTMRKHGGEKGVPFRVQIDTFKENENGEYTEHLHSASCQIKVFKPKGADRKQKTDREKMEKRTPHEKEKYQPSYETTILTECSPWPEITYVNNSPSPGFNSSHSSFSLGEGNGSPNHQPEPPPPVTDNLLPTTTPQEAQQWLHRNRFSTFTRLFTNFSGADLLKLTRDDVIQICGPADGIRLFNALKGRMVRPRLTIYVCQESLQLREQQQQQQQQQQKHEDGDSNGTFFVYHAIYLEELTAVELTEKIAQLFSISPCQISQIYKQGPTGIHVLISDEMIQNFQEEACFILDTMKAETNDSYHIILK

Assay [1] addresses B2. The assay can be described thus: pull-down; GST-DNMT1 fusions on beads incubated with 1 ug purified MBP-LSF; immunoblot with anti-LSF. The settings on record: both partners purified.
Assay [2] concerns the target T1, purified full-length DNMT1 (recombinant, baculovirus expressed) (human, UniProt P26358 1-1616). The assay can be described thus: cell-based or functional assay.
Assay [3] has as its target T1, purified full-length DNMT1 …. Put plainly: pull-down; as a4, in the presence of 2.5 uM FQI1. To be noted: both partners purified.

B1: GST-DNMT1 (amino acids 1-446) (domain or fragment, human, UniProt P26358 1-446, looked up)
chain: MPARTAPARVPTLAVPAISLPDDVRRRLKDLERDSLTEKECVKEKLNLLHEFLQTEIKNQLCDLETKLRKEELSEEGYLAKVKSLLNKDLSLENGAHAYNREVNGRLENGNQARSEARRVGMADANSPPKPLSKPRTPRRSKSDGEAKPEPSPSPRITRKSTRQTTITSHFAKGPAKRKPQEESERAKSDESIKEEDKDQDEKRRRVTSRERVARPLPAEEPERAKSGTRTEKEEERDEKEEKRLRSQTKEPTPKQKLKEEPDREARAGVQADEDEDGDEKDEKKHRSQPKDLAAKRRPEEKEPEKVNPQISDEKDEDEKEEKRRKTTPKEPTEKKMARAKTVMNSKTHPPKCIQCGQYLDDPDLKYGQHPPDAVDEPQMLTNEKLSIFDANESGFESYEALPQHKLTCFSVYCKHGHLCPIDTGLIEKNIELFFSGSAKPIYDDD
In the case of B1, the binding result in assay [1] is listed as “binds”. For B2, the “DNA methyltransferase activity of purified DNMT1 (80 nM) with His-LSF recombinant protein, molar ratio of His-LSF to DNMT1 from 2:1 to 4:1” value in assay [2] was about 2 fold.

B3: GST-DNMT1 (amino acids 431-836) (domain or fragment, human, UniProt P26358 431-836, looked up)
chain: IELFFSGSAKPIYDDDPSLEGGVNGKNLGPINEWWITGFDGGEKALIGFSTSFAEYILMDPSPEYAPIFGLMQEKIYISKIVVEFLQSNSDSTYEDLINKIETTVPPSGLNLNRFTEDSLLRHAQFVVEQVESYDEAGDSDEQPIFLTPCMRDLIKLAGVTLGQRRAQARRQTIRHSTREKDRGPTKATTTKLVYQIFDTFFAEQIEKDDREDKENAFKRRRCGVCEVCQQPECGKCKACKDMVKFGGSGRSKQACQERRCPNMAMKEADDDEEVDDNIPEMPSPKKMHQGKKKKQNKNRISWVGEAVKTDGKKSYYKKVCIDAETLEVGDCVSVIPDDSSKPLYLARVTALWEDSSNGQMFHAHWFCAGTDTVLGATSDPLELFLVDECEDMQLSYIHSKVKVIY
In the case of B3, in assay [1], the binding result was “binds”.

B4: GST-LSF (amino acids 65-259), DNA binding domain (domain or fragment, human, UniProt Q12800 65-259, looked up)
chain: LPFQYVLCAATSPAVKLHDETLTYLNQGQSYEIRMLDNRKLGELPEINGKLVKSIFRVVFHDRRLQYTEHQQLEGWRWNRPGDRILDIDIPMSVGIIDPRANPTQLNTVEFLWDPAKRTSVFIQVHCISTEFTMRKHGGEKGVPFRVQIDTFKENENGEYTEHLHSASCQIKVFKPKGADRKQKTDREKMEKRTP
notes: Cloned into pGEX-5X-1; also called LSF65-259; source: E. coli, captured on Glutathione Sepharose beads
With B4, the binding result in assay [3] is given as “binds”.
